In the supplement of paper PMC10126150:
± gives the standard deviation of the averaged measurements.

System: ATP
Assay: switch fluorescence ratio, 500 uM ATP over buffer (Cy3 cluster intensity, sum of 5 cycles each) (fold (ratio)); higher = stronger signal-on switching upon ATP binding; sequences stand for … in TCGTCGGCAGCGTCAGATGTGTATAAGAGACAGTTTTTTTTTTTTTTTTTTTTTTTTT…TC
Conditions: aptamer strand: ATP DNA aptamer (quencher-CACCTGGGGGAGTATTGCGGAGGAAGG + anchor), 100 nM annealed; ATP concentration: 500 uM
Procedure, shortened: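 Clusters carrying Cy3-labelled switching strands on a modified Illumina MiSeq flow-cell were annealed to 100 nM quencher-labelled ATP aptamer and imaged in selection buffer. They were imaged again after 15 min with 500 uM ATP at 22 °C, over five buffer/ATP cycles with NaOH stripping and re-annealing in between. For each cluster, the fluorescence ratio is the summed Cy3 intensity of the target cycles divided by that of the buffer cycles, averaged per switch-domain sequence. Clusters outside 100-1000 RFU were left out.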
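Also: ATP exposure 15 min at 22 °C before imaging.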

Row | Sequence | switch fluorescence ratio
1 | GTCGGGAGCC | 0.967 ± 0.018
2 | GTCGGGCCAG | 0.985 ± 0.025
3 | GTCGGGGAAG | 0.958 ± 0.013
4 | GTCGGGGGG | 1.01 ± 0.026
5 | GTCGGGGGTA | 0.992 ± 0.039
6 | GTCGTATTGG | 1.03 ± 0.03
7 | GTCGTATTTG | 0.9822 ± 0.0057
8 | GTCGTCCGGG | 0.986 ± 0.028
9 | GTCGTCTTAC | 1.05 ± 0.045
10 | GTCGTGGCGA | 1.01 ± 0.02
11 | GTCGTGGTTT | 0.982 ± 0.037
12 | GTCGTTAGGG | 0.963 ± 0.051
13 | GTCGTTGTTC | 1.03 ± 0.027
14 | GTCGTTTGCG | 1.012 ± 0.0048
15 | GTCGTTTTGG | 0.99 ± 0.029
16 | GTCTAACTGT | 0.994 ± 0.029
17 | GTCTAAGGAT | 0.995 ± 0.042
18 | GTCTATATTT | 1 ± 0.044
19 | GTCTGAACGG | 0.9762 ± 0.0081
20 | GTCTGTTATT | 1.01 ± 0.035
21 | GTCTTAACGA | 0.981 ± 0.015
22 | GTCTTGGGGG | 1 ± 0.023
23 | GTGAAAATTT | 1.07 ± 0.083
24 | GTGAAACGGG | 0.998 ± 0.07
25 | GTGAAAGCGT | 0.961 ± 0.016
26 | GTGAAAGTCG | 0.9929 ± 0.0024

Row | Sequence | switch fluorescence ratio
27 | GTGAACAGCA | 1.01 ± 0.025
28 | GTGAAGATTG | 1.02 ± 0.032
29 | GTGAATAGGG | 0.989 ± 0.028
30 | GTGAATGTAT | 1.02 ± 0.021
31 | GTGAATTTGT | 1.09 ± 0.15
32 | GTGACATTAA | 0.998 ± 0.03
33 | GTGACCGGCG | 1.03 ± 0.053
34 | GTGACTATGG | 0.96325 ± 0.00082
35 | GTGAGAGGGG | 1.008 ± 0.0069
36 | GTGAGGCGGT | 0.968 ± 0.017
37 | GTGAGGGATT | 1 ± 0.022
38 | GTGAGGGGTA | 0.975 ± 0.033
39 | GTGAGGGTGA | 1 ± 0.011
40 | GTGAGTCTAA | 0.993 ± 0.018
41 | GTGAGTGTCA | 1 ± 0.03
42 | GTGAGTGTTT | 0.99 ± 0.011
43 | GTGATAAATG | 0.956 ± 0.021
44 | GTGATAAGAC | 1.042 ± 0.0085
45 | GTGATAGGGC | 0.999 ± 0.025
46 | GTGATATTGT | 1.01 ± 0.011
47 | GTGATCGGGT | 1.02 ± 0.015
48 | GTGATCTGGG | 0.9689 ± 0.0053
49 | GTGATGCTTG | 0.998 ± 0.037
50 | GTGATGGGGA | 0.9895 ± 0.0095
51 | GTGATTACTG | 0.97 ± 0.011
52 | GTGATTAGGG | 0.968 ± 0.022

Row | Sequence | switch fluorescence ratio
53 | GTGATTTAGA | 0.9969 ± 0.0054
54 | GTGATTTGGG | 1.01 ± 0.0076
55 | GTGCAAGGGT | 1.01 ± 0.029
56 | GTGCCATGTT | 0.9816 ± 0.0083
57 | GTGCCCAACG | 1.03 ± 0.03
58 | GTGCGACGTT | 0.965 ± 0.08
59 | GTGCTATCTA | 1 ± 0.023
60 | GTGCTCTTAC | 1.11 ± 0.014
61 | GTGCTTCTTA | 0.992 ± 0.025
62 | GTGCTTCTTT | 0.99 ± 0.011
63 | GTGGAAGTTG | 0.949 ± 0.041
64 | GTGGAATAAT | 0.981 ± 0.015
65 | GTGGACATAT | 0.991 ± 0.015
66 | GTGGACTAGT | 1.02 ± 0.026
67 | GTGGAGGGGA | 1.01 ± 0.043
68 | GTGGATTTGG | 1.019 ± 0.0056
69 | GTGGATTTTC | 1 ± 0.062
70 | GTGGCAGGGG | 1.36 ± 0.63
71 | GTGGCATACT | 1.12 ± 0.016
72 | GTGGCATGGG | 1 ± 0.014
73 | GTGGCCCTAT | 0.998 ± 0.027
74 | GTGGCTGGGA | 0.974 ± 0.026
75 | GTGGCTTGGG | 1.02 ± 0.018
76 | GTGGGAAAGG | 0.9715 ± 0.0057
77 | GTGGGAACAG | 0.979 ± 0.011
78 | GTGGGAATTA | 0.996 ± 0.025

Row | Sequence | switch fluorescence ratio
79 | GTGGGACGAG | 0.971 ± 0.018
80 | GTGGGAGGGA | 1.02 ± 0.043
81 | GTGGGAGGTT | 0.948 ± 0.036
82 | GTGGGATCCG | 0.998 ± 0.014
83 | GTGGGATGAG | 1.01 ± 0.022
84 | GTGGGATGGG | 0.973 ± 0.019
85 | GTGGGCCGAG | 1.021 ± 0.0076
86 | GTGGGCGCCG | 0.987 ± 0.023
87 | GTGGGCGGGG | 0.979 ± 0.031
88 | GTGGGGAATA | 1.03 ± 0.043
89 | GTGGGGAGCT | 1.03 ± 0.061
90 | GTGGGGATGT | 1.01 ± 0.024
91 | GTGGGGCAAA | 1 ± 0.043
92 | GTGGGGCATA | 0.982 ± 0.017
93 | GTGGGGCCGC | 0.979 ± 0.036
94 | GTGGGGGCCC | 0.993 ± 0.017
95 | GTGGGGGCGG | 1.01 ± 0.022
96 | GTGGGGGCTG | 0.9878 ± 0.0047
97 | GTGGGGGGTC | 1.01 ± 0.062
98 | GTGGGGTGGG | 0.986 ± 0.029
99 | GTGGGTGGGA | 0.982 ± 0.046
100 | GTGGGTGTCC | 1.01 ± 0.017
101 | GTGGGTTGGA | 0.993 ± 0.033
102 | GTGGGTTTGG | 0.999 ± 0.049
103 | GTGGTAAAAG | 0.984 ± 0.013
104 | GTGGTAAGAT | 0.991 ± 0.037

Row | Sequence | switch fluorescence ratio
105 | GTGGTAAGCG | 0.995 ± 0.065
106 | GTGGTACGTA | 1.02 ± 0.06
107 | GTGGTACTGG | 0.9683 ± 0.0066
108 | GTGGTAGGCG | 0.975 ± 0.014
109 | GTGGTAGGGT | 1.02 ± 0.02
110 | GTGGTATCCG | 0.973 ± 0.058
111 | GTGGTATCGG | 0.989 ± 0.029
112 | GTGGTATGTC | 1.01 ± 0.07
113 | GTGGTCGAGT | 0.989 ± 0.01
114 | GTGGTCGGCA | 0.996 ± 0.011
115 | GTGGTCTTGA | 0.981 ± 0.028
116 | GTGGTGGCAG | 0.979 ± 0.015
117 | GTGGTTATGC | 1.02 ± 0.033
118 | GTGGTTCTAT | 0.996 ± 0.026
119 | GTGGTTGGGA | 0.992 ± 0.029
120 | GTGGTTTATA | 1.01 ± 0.021
121 | GTGTAACAGA | 1 ± 0.013
122 | GTGTAAGAGA | 1.006 ± 0.0081
123 | GTGTAAGCAG | 0.995 ± 0.01
124 | GTGTAAGGTT | 0.9935 ± 0.0066
125 | GTGTAATAAG | 0.99 ± 0.031
126 | GTGTAATAGG | 0.9713 ± 0.0056
127 | GTGTAATAGT | 0.996 ± 0.021
128 | GTGTAATTTG | 0.994 ± 0.036
129 | GTGTAATTTT | 0.993 ± 0.032
130 | GTGTAGAAAT | 0.9834 ± 0.0068

Row | Sequence | switch fluorescence ratio
131 | GTGTATAGGC | 1.09 ± 0.038
132 | GTGTATAGTG | 0.982 ± 0.018
133 | GTGTATCGGT | 0.994 ± 0.023
134 | GTGTCAGGGG | 1.04 ± 0.07
135 | GTGTCCCCTG | 0.981 ± 0.04
136 | GTGTCCTGTA | 0.998 ± 0.072
137 | GTGTCGAAGG | 0.976 ± 0.051
138 | GTGTCGTGGC | 1.012 ± 0.0029
139 | GTGTGAAAGG | 1 ± 0.013
140 | GTGTGAGTGT | 0.973 ± 0.016
141 | GTGTGGGGGC | 1.008 ± 0.0072
142 | GTGTGGGGGG | 1.02 ± 0.075
143 | GTGTGGTATA | 0.982 ± 0.012
144 | GTGTGGTGCA | 0.9802 ± 0.0045
145 | GTGTGTGGAC | 1.01 ± 0.026
146 | GTGTGTTCGC | 0.9546 ± 0.0069
147 | GTGTTAATTA | 0.989 ± 0.021
148 | GTGTTACGGG | 0.985 ± 0.016
149 | GTGTTACTGT | 0.959 ± 0.026
150 | GTGTTAGCTG | 1.02 ± 0.028
151 | GTGTTAGGGC | 0.9919 ± 0.0057
152 | GTGTTAGTAT | 1.02 ± 0.031
153 | GTGTTAGTTA | 1.01 ± 0.011
